In article PMC4959528, “SpoVG Is a Conserved RNA-Binding Protein That Regulates Listeria monocytogenes Lysozyme Resistance, Virulence, and Swarming Motility”:

Tests used:
[1] = target: T1, SpoVG-6-His (Listeria monocytogenes 10403S) (UniProt Q8YAD5); experiment: EMSA; conditions: 2x buffer: 40 mM Tris-HCl pH 8.0, 2 mM MgCl2, 20% glycerol, 300 mM NaCl, 5 mM DTT, plus 5 ug yeast tRNA, 1 ug BSA, 100 ng poly(dI-dC) …
T1 sequence: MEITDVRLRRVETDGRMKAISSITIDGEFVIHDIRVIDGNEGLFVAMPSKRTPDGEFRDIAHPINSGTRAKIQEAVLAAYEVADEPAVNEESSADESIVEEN

[2] = target: T1, SpoVG-6-His (Listeria monocytogenes 10403S); experiment: competition; conditions: EMSA, 2x buffer: 40 mM Tris-HCl pH 8.0, 2 mM MgCl2, 20% glycerol, 300 mM NaCl, 5 mM DTT; plus 5 ug yeast tRNA, 1 ug BSA, 100 ng poly(dI-dC) …
SpoVG-6-His [3] = target: T2, SpoVG-6-His (Listeria monocytogenes 10403S, UniProt Q8YAD5 1-102); experiment: EMSA; no significant binding to dsDNA; EMSA, 2x buffer: 40 mM Tris-HCl pH 8.0, 2 mM MgCl2, 20% glycerol, 300 mM NaCl, 5 mM DTT; plus 5 ug yeast tRNA, 1 ug BSA, 100 ng poly(dI-dC); 25-30 ul, room temperature 30 min, 5% native PAGE; conditions: protein: recombinant; tags: C-terminal 6xHis; label: 32P; blunt
T2 sequence: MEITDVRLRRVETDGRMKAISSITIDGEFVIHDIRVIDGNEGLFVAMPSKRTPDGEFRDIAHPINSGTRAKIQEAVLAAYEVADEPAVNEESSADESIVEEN

SpoVG-6-His [4] = target: T2, SpoVG-6-His; experiment: EMSA; EMSA, 2x buffer: 40 mM Tris-HCl pH 8.0, 2 mM MgCl2, 20% glycerol, 300 mM NaCl, 5 mM DTT; plus 5 ug yeast tRNA, 1 ug BSA, 100 ng poly(dI-dC); 25-30 ul, room temperature 30 min, 5% native PAGE; conditions: protein: recombinant; tags: C-terminal 6xHis; label: 32P

Row | Molecule | binding [1] | Kd [1] [nM] | also measured
1 | GGGAAAAGAAACCCUAAUGUAUUCGAUAUAGUUCCUGAUAUUUUUGAACCGAACAAUUUUUUAUACCUAGGGAGCUUGGAGUUCCGGCGCGGCGCACAUGCCUUCACACGAGGAAGUGCAAACCGUUAGACAGAGCACCCACCUGCUUUAAUUGAGAGCGGGUUCAAAGGAAGGGAAUCCUAAACGGUACGAUUGGGGUUUCUUUUUUG [6S RNA] | no binding | – | –
2 | GGGCAGUGGAAUUAAAGGCAUCUAAGCAAAUCAUGAUGAACGAGAGAACCGUUUGAAGAUCAUCCGAAUGACGUAUAUGUUCUACCUUGAUCUGUUCAGCCGCAAUGCUUUUGCGAGUGACA [Rli109] | – | 129 | binding [2]: binds
3 | GGGUGGAGAGCUUUCAUUUUUCCCAAGAGAAAGCAAAUAAUGUUAGAGCAAUAAUUCUAGUAUCCGAAUUAGUCUUAUCCCUUGGCUCGCUUUAAUAUUAUUUCUCCCUAAUACUCCCUUAACCGCAUCCCCCUGGUGCGGUUAUUUUUUUG [Rli32] | – | 273 | –
4 | GGUAUCCCAUAGAGAUUGUCAGGGGAAAUAAGCUAAUUGAAAAUAAAUUACUUCCCCCAUAGAAAUAUUCUUAAUUGCUUAUUUCAAAUAAACACUCCUUUAAGAUAGUUGUAGCACAGAAUUUCCCAGAUUCUGUGCUAUAAUUA [Rli31 mutant A] | binds | – | –
5 | GGUAUCCCAUAGAGAUUGUCAUUUGAAAUAAGCUAAUUGAAAAUAAAUUACUUCCCCCAUAGAAAUAUUCUUAAUUGCUUAUUUCAAAUAAACACUCCUUUAAGAUAGUUGUAGCACAGAAUUUCCCAGAUUCUGUGCUAUAAUUA [Rli31] | – | 273 | –
6 | GGUAUCCCAUAGAGAUUGUCAUUUGAAAUAAGCUAAUUGAAAAUAAAUUACUUUUUCCAUAGAAAUAUUCUUAAUUGCUUAUUUCAAAUAAACACUCCUUUAAGAUAGUUGUAGCACAGAAUUUCCCAGAUUCUGUGCUAUAAUUA [Rli31 mutant E] | – | – | binding signal [1]: binds more weakly
7 | GGUGAGAUGACAUGUUUCUUUUGAAUGCGCGAACUAGUAUAGCUAAAUUUUUGUAUAUUGUCCGUGCAAUUUUUUCCGUUAUUGCAGUUACAUUGGCGAAGUCUGCCCAAAAAACUGUAUAACUAGAAAAAAUGAGAGAAGCAUGGAGUCACGCAAUCGAUUUGUAUAGUGCUAAAUUAGUAUUAUACUUAUAAUUGGCGUCGGGCGCUUGUCUGACGCUUUUUUGUUGUCUGAAAAAA [RliI] | binds more weakly | – | –
8 | GGUUGUCGUGCUAGACGGGGAGGUAGCGGCGCCCUGUAACCCGCAAUCCGCUCUAGCGGGGUUGAAUUCCUCAUUUGAGGCAUCGUAAUUGUUUGGUCUGCCCUUGACAAGUGGUGUUGAAGGUUGGGUCUUGCGCAAUGGGAACCUGUGAACCAUGUCAGGUCCGGAAGGAAGCAGCAUUAAGCAGUGCUUCUCAUGUGCCGCGAGGUCGCCUGGCCCGAGCUAACUAUCAGGGUAACGCAGAUGAUUGCAUGUCGAUGUGAGGUGCGCGACACUAA [SRP RNA] | no binding | – | –
9 | Rli31 | – | 273 | –
10 | Rli32 | – | 273 | –
11 | Rli109 | – | 129 | –
12 | cap41 dsDNA (dsDNA) DNA 1: GAGTATAATTATTTTTAATTTACATATAAATAAAAAGGCGAAAATAATGCGGTTTAAAAGTAATTAAT DNA 2: ATTAATTACTTTTAAACCGCATTATTTTCGCCTTTTTATTTATATGTAAATTAAAAATAATTATACTC | – | – | binding result (SpoVG-6-His [3]): no binding
13 | GTCGCGCAACAAAGTAATAATGCAGATGGACAGACTAATGAAAGACCAG (ssDNA) [pgdA ORF] | – | – | binding result (SpoVG-6-His [4]): binds
